Source: the supplement of paper PMC10899765

Experiments:
Conditions in all cases: 20 nM; 72 h
MCF10A [1] = experiment: one-nucleolus phenotype percent effect (relative to siNT 0% and siNOL11 100%); higher = more cells with one nucleolus (ribosome biogenesis inhibition)
Procedure: (§1)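 After 72 h, cells were fixed and stained with Hoechst and anti-fibrillarin, and nucleoli per nucleus were counted with CellProfiler. Values are plate-adjusted percent effect for the one-nucleolus and 5+ nucleoli phenotypes, normalised to siNT (0%) and to the positive controls siNOL11 or siKIF11 (100%), as the mean of biological triplicates. Percent viability is the nuclei count relative to siNT.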

MCF10A [2] = experiment: percent viability (nuclei count relative to siNT); higher = more viable cells
Procedure: as §1

MCF10A [3] = experiment: 5+ nucleoli phenotype percent effect (relative to siNT 0% and siKIF11 100%); higher = more cells with five or more nucleoli
Procedure: as §1

Sequence	one-nucleolus phenotype percent effect (MCF10A [1])	percent viability (MCF10A [2])	5+ nucleoli phenotype percent effect (MCF10A [3])
UCUGGAUUGAAGAGACGACCCA [hsa-miR-6839-5p]	2.28%	36.1%	-12.4%
AUACACAUACACGCAACACACAU [hsa-miR-466]	-17.2%	38.7%	-1.51%
CGUGUCUUCUGGCUUGAU [hsa-miR-4711-3p]	59.2%	17.8%	-36.9%
CCUCUGGGCCCUUCCUCCAG [hsa-miR-326]	56.9%	20.2%	-35.6%
AGACCCUGCAGCCUUCCCACC [hsa-miR-4725-5p]	17.4%	36%	-16%
CAUGGUUCUGUCAAGCACCGCG [hsa-miR-218-2-3p]	12.5%	68%	7.58%
GUGGACCAGGAUGGCAAGGGCU [hsa-miR-4776-5p]	-5.58%	77.7%	14.5%
CAGGCCAUAUUGUGCUGCCUCA [hsa-miR-15a-3p]	23%	29.6%	-27.1%
ACAGGGCCGCAGAUGGAGACU [hsa-miR-3918]	50.3%	8.55%	-31.2%
GCAAAGCACACGGCCUGCAGAGA [hsa-miR-330-3p]	-7.99%	83.2%	16.5%
CCCUGUUCUAUGCCCUGAGGGA [hsa-miR-1266-3p]	-19.3%	90.7%	47.8%
AGAGGAUACCCUUUGUAUGUU [hsa-miR-1185-5p]	2.36%	34.2%	5.5%
CCGCUUUCUGAGCUGGAC [hsa-miR-4315]	34.8%	25.2%	-27.2%
GUGGUUAUCCCUGUCCUGUUCG [hsa-miR-487b-5p]	-1.37%	37.4%	17.4%
AAGAGGAAGAAAUGGCUGGUUCUCAG [hsa-miR-3916]	-5.24%	14%	-13.2%
AUCACAUUGCCAGUGAUUACCC [hsa-miR-23c]	2.08%	93.5%	-6.12%
AUUGCCUAACAUGUGCCAGAA [hsa-miR-4774-3p]	13.7%	26.6%	-31.6%
GGGCCUCUCUUGUCAUCCUGCAG [hsa-miR-6744-3p]	-21.1%	81.6%	49.2%
CAGGUCACGUCUCUGCAGUUAC [hsa-miR-370-5p]	-14.6%	54.3%	5.92%
CUCCUGGGGCCCGCACUCUCGC [hsa-miR-1343]	-9.67%	66.7%	7.58%
